# Results as given in the nanobody polyreactivity screen of Harvey et al. (2022).
# Experiment: yeast display, Sf9 membrane polyspecificity reagent, FACS + sequencing; frameworks hold sequencing errors
# Outline: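 Galactose-induced (36–48 hours) yeast carrying a synthetic nanobody display library were exposed to 10% biotinylated, detergent-solubilized Sf9 membrane reagent at 4 °C for 1 hour. FACS followed streptavidin microbead enrichment, using low and high (top ~1%) gates for expression (anti-HA) and reagent binding (streptavidin). Colony PCR, MiSeq 2 × 250 sequencing and CDR-length filtering followed. Labels for polyreactivity reflect the gate of origin.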
row,Sequence,polyreactivity (PSR sort gate)
1,QVQLVESGGGLVQAGGSLRLSCAASGSTFGYNAMGWYRQAPGKERELVAAISYSGGSTSYADSVKGRFTISRDNAKNTVYLQMNSLKPEDTAVYYCAADEGTGQASLSSNLYDYWGQGTQVTVSS,low polyreactivity
2,QVQLVESGGGLVQAGGSLRLSCAASGSTFGYNAMGWYRQAPGKERELVAAITWSGGSTYYADSVKGRFTISRDNAKNTVYLQMNSLKPEDTAVYYCAADDWYNSTWHYYYWGQGTQVTVSS,low polyreactivity
3,QVQLVESGGGLVQAGGSLRLSCAASGSTFGYNAMGWYRQAPGKERELVAAITWTGASTYYADSVKGRFTISRDIAKNTVYLQMNSLKPEDTAVYYCNRVGYQSMNYWGQGTQVTVSS,low polyreactivity
4,QVQLVESGGGLVQAGGSLRLSCAASGSTFGYNGLGWYRQAPGKERELVAAISGGARTYADSVKGRFTISRDNAKNTVYLQMNSLKPEDTSVYYCAADSPVSVTADDGYWGQGTQVTVSS,low polyreactivity
5,QVQLVESGGGLVQAGGSLRLSCAASGSTFGYNGMGWYRQAPGKERELVAAISGGARTYADSVKGRFTISRDNAKNTVYLQMNSLKPEDTAVYYCAADSPVSVTADDGYWGQGTEVTVSS,low polyreactivity
6,QVQLVESGGGLVQAGGSLRLSCAASGSTFGYNGMGWYRQGPGKERELVAAISGGARTYADSVKGRFTISRDNAKNTVYLQMNSLKPEDTAVYYCAADSPVSVTADDGYWGQGTQLTVSS,low polyreactivity
7,QVQLVESGGGLVQAGGSLRLSCAASGSTFGYYAMGWYIQAPGKERELVAAISWPGGSTYYADSVKGRFTISRDNAKNTVYLQMNSLKPEYTAVYYCAADTPYWQSSKYDYWGQGTQVSVSS,high polyreactivity
8,QVQLVESGGGLVQAGGSLRLSCAASGSTFGYYAMGWYRQAPGKERELVAAIRWSGSTYYADSVKGRFTISRDNAKNTVYLQMNSLKPEDTAVYYCAADFVKRQANRQFDYWGQGTQVTVSS,high polyreactivity
9,QVQLVESGGGLVQAGGSLRLSCAASGSTFGYYAMGWYRQAPGKERELVAAISLGGGSTYYADSVKGRFTISRDNAKNTVYLQMNSLKPEDTEVYYCAARPYVRVKWKFNYWGQGTQVTVSS,low polyreactivity
10,QVQLVESGGGLVQAGGSLRLSCAASGSTFGYYAMGWYRQAPGKERELVAAISRGDSTNYADSVKGRFTISRDNAKNTVYLQMNSLKPEDTAVYYCAADQLNVCREYVEYDYWGQGTQVTVAS,low polyreactivity
11,QVQLVESGGGLVQAGGSLRLSCAASGSTFGYYAMGWYRQAPGKERELVAAISSGGSTNYADSVKGRFTISRDNAKNTVYLQMNSLKPEDTAVYYCNVGYIFVSFRYDYWGQGTQVTVSS,low polyreactivity
12,QVQLVESGGGLVQAGGSLRLSCAASGSTFGYYAMGWYRQAPGKERELVAAITWSGGSTSYADSVKGRFTISRENAKNSVYLQMNSLKPEDTAVYYCAAQYKKGRGAKRTYYGGWLEYCGQGTQVTVSS,low polyreactivity
13,QVQLVESGGGLVQAGGSLRLSCAASGSTFGYYAMGWYRQAPGKERELVAVIRRGGSTNYADSVKGRFTISRENAKNTVYLQMHSLKPEDTAVYYCAKSQRGTVYSYYYWGQGSQVTVSS,high polyreactivity
14,QVQLVESGGGLVQAGGSLRLSCAASGSTFGYYAMGWYRQAPRKERELVAVITRGGSTYYADSVKGRFTISRDNAKNTVYVQMNSLKPEDTAVYYCNARVQAVHYGYWGQGTEVTVSS,high polyreactivity
15,QVQLVESGGGLVQAGGSLRLSCAASGSTFGYYAMGWYRQAPVKERELVAAISAGDRTYYADSVKGRFTISRDNATNTLYLQMNSLKPEDTAVYYSAARPLRSRNGYYWGQGTQGTVSS,high polyreactivity
16,QVQLVESGGGLVQAGGSLRLSCAASGSTFGYYGMGRYRQAPGKERELVASIDSRGDSTYADSVKGRFTISRDNAKNTVYLQMNSLKPEDTSVYYCADDSWYTWFDSWGQGTQVTVSS,low polyreactivity
17,QVQLVESGGGLVQAGGSLRLSCAASGSTFGYYSMGWYRQAPGKERELVAAIRYSGGTTYYADSVKGRYTISRDNAKNTVYLQMNSLKPEDTAVYYCAAVYTSGYYYWGQGTQVTVSS,high polyreactivity
18,QVQLVESGGGLVQAGGSLRLSCAASGSTFGYYTMGWYRQAPGKERELVAAITWLGGRTYYADSVKGRFTISRDNAKNTVYLQMNSLKPEDTAVYYCAARSTVLMDYWGQGTQVTVSS,high polyreactivity
19,QVQLVESGGGLVQAGGSLRLSCAASGSTFGYYTMGWYRQAPGKERELVASIDVSGDSTSYADSVKGRLTISRDNAKNTVYLQMNSLKPEDTAVYYCNTGRYPTSPTHNYWGQGTQVTVSS,low polyreactivity
20,QVQLVESGGGLVQAGGSLRLSCAASGSTFHFYAMGWYRQAPGKESELVAAITWSGGTTYYADSVKGRFTISRDNAKNTVYFQMNSLKPEDTGVYYCATGQSVIYRYEYWGQGTQVTVSS,low polyreactivity
21,QVQLVESGGGLVQAGGSLRLSCAASGSTFHGNAMGWYRQAPGKERELVAAISRSGGSTYYADSVKGRFTISRDNEKNTVYLQMNSLKPEDNAVYYCAADRPYYPLKYDYWGQGTQVTVSS,high polyreactivity

row,Sequence,polyreactivity (PSR sort gate)
1,QVQLVESGGGLVQAGGSLRLSCAASGSTFHGYDMGWYRQAPGKERELVAAITSSGDDTYYADSVKGRFTISRDNAKNTVYLQMNSLKPEDTAVYYCAAEYTEGYTHDYWGQGTQVNVSS,low polyreactivity
2,QVQLVESGGGLVQAGGSLRLSCAASGSTFHIYAMGWYRQAPGKERELVAGITRGSTYYADSVKGRFTISRDNAKNTVYLQMNSLKPEDTAVYYCAADVYGFRYSESDYWGQGTQVTVSS,low polyreactivity
3,QVQLVESGGGLVQAGGSLRLSCAASGSTFHPNAMGWYRQAPGKERELVAISSGDDTYYADSVKGRFTISRDIAKNTVYLQMKSLKPEDTAVYYCAAEYSFIYYWGQGTQVTVSS,low polyreactivity
4,QVQLVESGGGLVQAGGSLRLSCAASGSTFHPNGMGWYRQAPGKERELVAAIRRSGGSTYYADSVKGRFTISRDNAKNTVYLQMNSLKPEDTAVYYCAAKHYYYSPYVRYDPPPGYYWGQGTQVTVSS,high polyreactivity
5,QVQLVESGGGLVQAGGSLRLSCAASGSTFHQNTMGWYRQAPVKEREMVAAISWTGGGTYYADSVKGRYTISRDNAKNTVYLQMNSLKPEDTAVYYCAADYSDFWGFRYYYWGQGTQVNVSS,low polyreactivity
6,QVQLVESGGGLVQAGGSLRLSCAASGSTFHRNAMGWYRQAPGKERELVAAITSGGSTNYADSVKGRFTISRDNAKNTVYLQMNSLKPEDTAVYYCAKDYRHYNRGWYDYWGQGTQVTVSS,low polyreactivity
7,QVQLVESGGGLVQAGGSLRLSCAASGSTFHRNTMGWYRQAPGKERELVAGISLRGVRTYYADSVKGRFTISRDNAKNTVYLQMNSLKPEDTAVYYCAAGGPYTRNFKLGYWGQGTQVTVSS,high polyreactivity
8,QVQLVESGGGLVQAGGSLRLSCAASGSTFHSNAMGGYRQAPGKERELVAAISSGGSTNYADSVKGRFTISRDNAKNTVYLQMNSLKPEDTAVYYCAAVWRYLGYTAMDYWGQGTQVTVSS,low polyreactivity
9,QVQLVESGGGLVQAGGSLRLSCAASGSTFHSYVMGWYRQAHGKERELVAAITSRGGSTNYADSVKGRFTISRDNAKNTVYLQMNSLKPEDTAVYYCAADGYWGWSYFRYDYWGQGTLVTVSS,low polyreactivity
10,QVQLVESGGGLVQAGGSLRLSCAASGSTFHTYDMGWYRQAPGKERELVAAITSGGDTNYADSVKGRFTISRDNAKNTVYLQMNSLKPEDTAVYYCNTDRWGTGKLRYNYWGQGTQVTVSS,low polyreactivity
11,QVQLVESGGGLVQAGGSLRLSCAASGSTFHTYGLGWYRQAPGKERELVAAIDLSDGSTYYADSVKGRFTISRDNAKNTVYLQMNSLKPADTAVYYCKADYFPKPYRPDDYWGQGTQVTVSS,low polyreactivity
12,QVQLVESGGGLVQAGGSLRLSCAASGSTFHWYDMGWYRQAPGKERELVAGINSSGDGTYYADSVKGRFTISRDNAKYTVYLQMNSLKPEDTAVYYCAAPWWYYGVPYQTNKYDYWGQGTQVTVSS,low polyreactivity
13,QVQLVESGGGLVQAGGSLRLSCAASGSTFHYYAMGWYRQAPGKERELVAAISQSGSGTYYADSVKGRFTISRDNAKNTVYLQMNSLKPEDTAVYYCAKESTKIYRVVEMDYWGQGTQVTVSS,low polyreactivity
14,QVQLVESGGGLVQAGGSLRLSCAASGSTFHYYVMRWYRQAPGKERELVAAIRRSGGTTYYADSVKGRFTISRDNAKNTVYLQMNSLKPEDTAVYYCAAPGWYGGYPSYYYWGQGTQVSVSS,low polyreactivity
15,QVQLVESGGGLVQAGGSLRLSCAASGSTFIAYTMGWYRQAPGKERELVAAITWSGGGTYYADSVKGRFTISRDNAKNTVYLQMNSLKPEDTAVYYCAKRGWRGYYWGQGTQVTVSS,high polyreactivity
16,QVQLVESGGGLVQAGGSLRLSCAASGSTFIFYVMVWYRQAPGKERELVASITGNGTSTYYADSVKGRFTISRDNAKNTVYLQMNSLKPEDSAVYYCNAVFSPSRYDYWGQGTQVTVSS,low polyreactivity
17,QVQLVESGGGLVQAGGSLRLSCAASGSTFIGNAMGRYRQAPGKERELVAAITRSGGSTFYADSVKGRFTISRDYAKNTVYLQMNSLKPEDTAVYYCAARTRRGLARYDYWGQGTQVTVSS,high polyreactivity
18,QVQLVESGGGLVQAGGSLRLSCAASGSTFIGNAMGWYRQAPGKERELVAAITRSGGSTFYADSVKGRFTISRDNAKNTVYLQMNSLKPEDTAVYYCSAKGNPYRVPGSSYPKVNYWGQGTQVTVSS,high polyreactivity
19,QVQLVESGGGLVQAGGSLRLSCAASGSTFIGYAMGWYRQAPGKDRELVAAITRSGGRTYYADSVKGRFTISRDNAKNTVYLQMNSLKPEVSAVYYCAARVKGQWNTYDYWGQGTQVTVSS,high polyreactivity
20,QVQLVESGGGLVQAGGSLRLSCAASGSTFIHNAMGWYRQAPRKERELVAAITSGGSTYYADSVKGRFTISRDNAKNTVYLQMNSLKPEDTAVYYCNRGSWRYSTMEYWGQGTQVTVSS,high polyreactivity
